# T1: subtilisin Carlsberg (Bacillus licheniformis, UniProt P00780)
# T1 chain: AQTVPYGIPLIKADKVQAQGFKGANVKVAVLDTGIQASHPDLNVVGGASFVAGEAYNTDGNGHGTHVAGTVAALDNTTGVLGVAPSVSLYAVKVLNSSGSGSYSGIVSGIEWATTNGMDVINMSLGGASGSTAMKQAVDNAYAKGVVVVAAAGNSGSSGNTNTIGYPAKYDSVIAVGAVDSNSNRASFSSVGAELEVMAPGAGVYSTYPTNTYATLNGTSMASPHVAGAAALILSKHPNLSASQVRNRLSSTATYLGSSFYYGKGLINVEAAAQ
# What was measured:
# subtilisin Carlsberg [1] = target: T1, subtilisin Carlsberg; test: ITC
# subtilisin Carlsberg [2] = target: T1, subtilisin Carlsberg; test: ITC; given as Ka
binder,measurement,setting,value
VCTEEY [VCTEEY peptide (CrSPI-1 domain 2 RSL)],Kd,subtilisin Carlsberg [1],500 µM
same,Kd,subtilisin Carlsberg [2],526 µM
